Source: paper PMC11929074, “An in vitro platform for the enzymatic characterization of the rhomboid protease RHBDL4” (The Journal of Biological Chemistry, 2025)
“Also recorded” adds a separate entry of the source. The star is where a group is joined. Dnp = O=[N+]([O-])c1ccc(*)c([N+](=O)[O-])c1; Mca = COc1ccc2c(CC(=O)*)cc(=O)oc2c1

Experiments:
RHBDL4-S144A = test: FRET-based cleavage by inactive RHBDL4-S144A; type: biochemical, human; details: pH 8, 37 °C
Description: (§1) The reaction setup in our FRET assay enabled the direct determination of Michaelis–Menten kinetic parameters Km and kcat for the cleavage of IQ6, IQ41, and IQ46 by RHBDL4. Our fluorescence reading data were converted to μM/h using the standard calibration curve for all three IQ substrates, and the correction factor for the inner filter effect was applied. We confirmed that purified RHBDL4 followed Michaelis–Menten kinetics with KmIQ6=10.73±2μΜ , KmIQ41=5.63±2μΜ , and KmIQ46=7.19±1μΜ and kcatIQ6=7.33±0.6h^−1 , kcatIQ41=2.41±0.6h^−1 , and kcatIQ46=3.62±0.08h^−1 (Figs. 2B and S2B).
Figure 3 Dependence of conserved rhomboid motifs on RHBDL4 protease activity.A, RHBDL4 representation highlighting TM1–6 (in green), the VBM- and UIM-binding motifs (in blue), the conserved rhomboid motifs (WR and Gx3G), and the serine-histidine catalytic dyad (in pink). The table indicates the RHBDL4 region, the conserved rhomboid motifs, and amino acid mutation. The RHBDL4 proteolytic activity. B, size-exclusion chromatography profile of RHBDL4-AR and RHBDL4-Ax3G, being eluted as a monomeric protein. C, coomassie staining and Western blotting using an α-His antibody of concentrated purified RHBDL4-AR and RHBDL4-Ax3G. D, activity profiles of the WT RHBDL4 and mutant RHBDL4-S144A, RHBDL4-AR, and RHBDL4-Ax3G proteins, as measured by cleavage of the fluorescent substrate IQ6. Assay was performed in triplicate (n = 3), and data points are represented by the average ± S.E.M. Statistically significant differences compared to WT RHBDL4 are indicated (pairwise Dunnett's test followed by Bonferroni's post hoc analysis; ∗p < 0.05, n.s., no significance).
(§2) The enzymatic assay was performed as previously described (Arutyunova et al., 2014, ([26])). […] The FRET-based cleavage assay was conducted in a fluorescence multiwell plate reader (SynergyMx, BioTek). Upon excitation at 320 nm, the emission intensity at 400 nm was recorded for 2 h at minimal intervals under shaking conditions and plotted using the GraphPad PRISM software. […]

recombinant human RHBDL4 [1] = molecular target: T1, recombinant human RHBDL4 (Homo sapiens, UniProt Q8TEB9); test: Mass spectrometry identification of cleavage sites in IQ6; type: biochemical; details: 1.5 μM RHBDL4, 10 μM IQ6, 4 h, room temperature, quenched with 8 M GuHCl; MS/MS
T1 construct: The entire RHBDL4 and RHBDL4-S144A cDNAs were subcloned into the pcDNA3.1 vector; 6xHis (C, cleaved yes); made in house; host or cells: Freestyle 293-F cells (transient transfection, pcDNA3.1-HisA)
T1 sequence (Q8TEB9 1-315): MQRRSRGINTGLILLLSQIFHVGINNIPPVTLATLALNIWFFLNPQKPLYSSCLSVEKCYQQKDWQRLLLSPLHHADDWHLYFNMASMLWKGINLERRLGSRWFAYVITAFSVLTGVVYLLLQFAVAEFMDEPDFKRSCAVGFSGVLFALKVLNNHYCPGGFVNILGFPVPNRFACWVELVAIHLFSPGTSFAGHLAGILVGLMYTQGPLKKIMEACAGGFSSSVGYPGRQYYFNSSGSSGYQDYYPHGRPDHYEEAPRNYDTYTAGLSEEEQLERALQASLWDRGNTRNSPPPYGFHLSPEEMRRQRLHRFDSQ
Procedure: (§3) The enzymatic assay was performed as previously described (Arutyunova et al., 2014, ([26])). […] The FRET-based cleavage assay was conducted in a fluorescence multiwell plate reader (SynergyMx, BioTek). Upon excitation at 320 nm, the emission intensity at 400 nm was recorded for 2 h at minimal intervals under shaking conditions and plotted using the GraphPad PRISM software. The initial velocities were defined as the slopes of the curve of the generated product as a function of time. The plots of the generated product against the corresponding substrate concentration were fitted with the Michaelis–Menten equation. Catalytic parameters were extrapolated using GraphPad PRISM. […] The samples were desalted using C18 tips (Rainin), eluted in 80% acetonitrile, and dried down in a vacuum centrifuge prior to mass spectrometry analysis.
Supplemental Information 4. […] (B) Depiction of IQ6 cleavage sites as determined from tandem mass spectrometry (MS/MS). (C) Peptide sequence of GlpG-derived and PARL-derived fluorescent substrates IQ4 and IQ15, respectively. (D) Activity profiles of the wild-type RHBDL4 and mutant RHBDL4-S144A, as measured by cleavage of the fluorescent substrates IQ4 and IQ15. Assays was performed in triplicate, and data points are represented by the average ± S.E.M.

RHBDL4-AR = test: FRET-based cleavage of IQ6 by RHBDL4-AR mutant (WR motif); type: biochemical, human; details: IQ6 substrate; n = 3
Description: (§4) All mutants had robust expression on day 3 post-transfection of Freestyle 293-F cells, when cells were harvested for purification. RHBDL4 contains two motifs that are well conserved among the rhomboid superfamily, the WR motif in L1 and the Gx3G motif in TM domain 6 (Fig. S3, A and B) ([8]). Both motifs are required for RHBDL4-mediated ERAD function (Fleig et al. 2012). We predicted that both AR and Ax3G mutants would result in lower RHBDL4 activity. To that end, RHBDL4-AR and RHBDL4-Ax3G were expressed and purified using affinity Ni-NTA column followed by SEC (Fig. 3, B and C). […]
(§5) Figure 3 Dependence of conserved rhomboid motifs on RHBDL4 protease activity.A, RHBDL4 representation highlighting TM1–6 (in green), the VBM- and UIM-binding motifs (in blue), the conserved rhomboid motifs (WR and Gx3G), and the serine-histidine catalytic dyad (in pink). […] D, activity profiles of the WT RHBDL4 and mutant RHBDL4-S144A, RHBDL4-AR, and RHBDL4-Ax3G proteins, as measured by cleavage of the fluorescent substrate IQ6. […]
as §2

recombinant human RHBDL4 [2] = molecular target: T1, recombinant human RHBDL4; test: FRET-based cleavage assay with fluorescent (IQ / KSp207) substrates; type: biochemical; details: for kcat: average ± S.E.M.; for RHBDL4-catalyzed activity towards GlpG/PARL model substrates: in vitro cleavage assay
Procedure: Figure 2 Kinetic characterization of recombinant human RHBDL4.A, schematic representation of the FRET-based cleavage assay using internally quenched (IQ) substrates. B, saturation curves of RHBDL4 using the fluorescent IQ substrates, IQ6, IQ41, and IQ46. C, pH dependence of the RHBDL4 protease activity using substrates IQ6, IQ41, and IQ46. D, salt concentration dependence of the RHBDL4 protease activity using substrates IQ6, IQ41, and IQ46. All the assays were performed in triplicate, and data points are represented by the average ± S.E.M. TEXT PRINTED IN THE PICTURE: (B) IQ 6: KM(μM) 10.73±2; Kcat(hr^-1) 7.33±0.6 | (B) IQ 41: KM(μM) 5.63±2; Kcat(hr^-1) 2.41±0.6 | (B) IQ 46: KM(μM) 7.19±1; Kcat(hr^-1) 3.62±0.8
as §1
Our FRET-based assay is a suitable platform for optimizing conditions that enhance RHBDL4 protease activity. To this end, we selected the optimal pH for RHBDL4 protease activity and performed FRET-based assays with IQ6, IQ41, and IQ46 at a pH range of 5 to 10. […] The optimal salt concentration for the RHBDL4 protease activity was also tested in the range of 100 to 300 mM (Fig. 2D). We conclude that with the IQ6, IQ41, and IQ46 substrates, RHBDL4 had satisfactory activity in a salt concentration range of 100 to 300 mM.
Figure 5 In vitro inhibition of RHBDL4 activity with TMED7-derived peptidyl α-ketoamides.A, schematic representation of the peptidyl-α-ketoamide inhibitor, compound 3 and 4. B, representative inhibition curve derived from measuring rates of RHBDL4 proteolysis of the fluorescent substrate IQ6 with increasing concentrations of compound 3. C, same as (B), except inhibition curve was derived from using increasing concentrations of compound 4. […] Reactions were quenched with 1 RLaemmli buffer and loaded on 12% SDS-PAGE gel. Post-transfer membranes were visualized using a fluorescence Cy3 filter and by Western blotting using an α-His antibody. E, saturation curve of RHBDL4 using fluorescent substrate, KSp207. For (B and C), all inhibitors were pre-incubated with RHBDL4 for 1 h and allowed to react with the IQ6 substrate for 2 h. […]
as §3
All the calculations for Km, Vmax, and Kcat for RHBDL4 and its mutants were performed using GraphPad PRISM.

RHBDL4-Ax3G = test: FRET-based cleavage of IQ6 by RHBDL4-Ax3G mutant; type: biochemical, human; details: IQ6 substrate; n = 3
Description: as §4, §5, §2

[3] = system: mammalian rhomboid protease PARL; details: ref [26], [27]; cited from earlier work
[4] = system: bacterial rhomboid protease GlpG; details: ref [26], [27]; cited from earlier work

Substance	cleavage by inactive RHBDL4-S144A (increase in fluorescence / activity) (RHBDL4-S144A)	N-terminal cleavage products (recombinant human RHBDL4 [1])	decrease in activity compared with WT RHBDL4 (RHBDL4-AR) [fold]	kcat (recombinant human RHBDL4 [2]; 37 °C, pH 8.0, triplicate) [s⁻¹]	cleavage rate/efficiency relative to other substrates (recombinant human RHBDL4 [2]; FRET-based assay)	faster kinetics in comparison to IQ41 (recombinant human RHBDL4 [2]; IQ6 versus IQ41)	faster kinetics in comparison to IQ46 (recombinant human RHBDL4 [2]; IQ6 versus IQ46)	kcat (recombinant human RHBDL4 [2]; Michaelis-Menten, 1.5 μM RHBDL4, 37 °C, 2 h, pH 8.0, 150 mM NaCl, 0.1% DDM, triplicate) [s⁻¹]	catalytic rate (cleavage rate) (recombinant human RHBDL4 [2]; approximate, discussion)	pH of highest RHBDL4 protease activity (recombinant human RHBDL4 [2]; pH range 5 to 10, triplicate)	salt concentration range with satisfactory activity (recombinant human RHBDL4 [2]; salt tested 100 to 300 mM, triplicate) [mM]	enzymatic cleavage activity compared with WT RHBDL4 (RHBDL4-Ax3G)	RHBDL4-catalyzed activity towards GlpG/PARL model substrates (recombinant human RHBDL4 [2]; triplicate)	cleavage by PARL [3]	cleavage by GlpG [4]
Mca-Arg-Pro-Pro-Gly-Phe-Ser-Ala-Phe-Lys (DNP)-OH (Mca-RPPGFSAFK(Dnp)-OH; SMILES COc1ccc2c(CC(=O)N[C@@H](CCCNC(=N)N)C(=O)N3CCC[C@H]3C(=O)N3CCC[C@H]3C(=O)NCC(=O)N[C@@H](Cc3ccccc3)C(=O)N[C@@H](CO)C(=O)N[C@@H](C)C(=O)N[C@@H](Cc3ccccc3)C(=O)N[C@@H](CCCCNc3ccc([N+](=O)[O-])cc3[N+](=O)[O-])C(=O)O)cc(=O)oc2c1) [IQ6, fluorescent internally quenched substrate mca-…(dnp)]	negligible increase in fluorescence; also recorded: negligible activity	mca-RPPGFSA and mca-RPPGFS	~6	0.00204 ± 0.00017	exhibited the highest cleavage rate for RHBDL4 proteolysis; also recorded: maximum activity	three-fold	two-fold	0.00204 ± 0.00017	approximately 7 /h	8	100 to 300	retained enzymatic cleavage activity at levels comparable to WT RHBDL4	–	–	–
mca-AVFLSAVAG(dnp) [IQ15, PGAM-derived PARL model substrate mca-…(dnp)]	–	–	–	–	–	–	–	–	–	–	–	–	did not observe any RHBDL4-catalyzed activity	cleave	–
mca-RPKPYAvWMK(dnp) [IQ4, GlpG model substrate mca-RPKPYAvWMK(dnp)]	–	–	–	–	–	–	–	–	–	–	–	–	did not observe any RHBDL4-catalyzed activity	–	cleave
